# ± gives the uncertainty stated by the source.
# B1: Integrator complex subunit 12, residues 155 to 213; numbered along this chain, Q96CB8 (parent)
# chain: AMEMGLACVVCRQMMVASGNQLVECQECHNLYHRDCHKPQVTDKEANDPRLVWYCARCT
# Variants of: B1
# Assay: abundance fitness (aPCA) (normalised: wild type 0, dead -1); higher = more abundant; growth selection in yeast, the domain comes from the species named
# Settings: Homo sapiens
row,Variant,abundance fitness
1,AMEMGLACVVCRQMMVASGNQLVECQECHNLYHRDCHKPQVTDKEAFDPRLVWYCARCT [N47F],-0.162 ± 0.052
2,AMEMGLACVVCRQMMVASGNQLVECQECHNLYHRDCHKPQVTDKEANDPRLIWYCARCT [V52I],-0.095 ± 0.057
3,AMEMGLACVVCRQMMVASGNQLVECQECHNLYHRDCHKPQVTDKEANDPRLVWYCAPCT [R57P],-0.013 ± 0.048
4,AMEMGLACVVCRQMMVASGNQLVECQECHNYYHRDCHKPQVTDKEANDPRLVWYCARCT [L31Y],0.047 ± 0.038
5,AMEMGLACVVCRQMMVASGNQLVECQECHNLYHRDCHDPQVTDKEANDPRLVWYCARCT [K38D],0.081 ± 0.074
6,AMEMGLACVVCRQMMVASGNQLVECQECHNLYHRDCHFPQVTDKEANDPRLVWYCARCT [K38F],-0.139 ± 0.073
7,AMEMGLACVVCRQMMVASGNQLVECQECHNLYHRDRHKPQVTDKEANDPRLVWYCARCT [C36R],-0.619 ± 0.039
8,AMEMGLACVVCRQMMVASGNQLVECQECHNLYHRDCHKPQVTDKEANDLRLVWYCARCT [P49L],-0.101 ± 0.048
9,AMEMGLACVVCRQMMVASGNQLVECQECHNLYHRDCHKPQVTDKEANDPRLVWYCATCT [R57T],0.057 ± 0.056
10,AMEMGLACVVCRQMMVASGNQLVECQECHNLYHRDCHKPQVTDKEANDPRLVWYCARVT [C58V],-1.04 ± 0.091
11,AMEMGLACVVCRQMMVASGNQLVECQECHNLYHRLCHKPQVTDKEANDPRLVWYCARCT [D35L],0.06 ± 0.032
12,AMEMGLACVVCRQMMVASGNQLFECQECHNLYHRDCHKPQVTDKEANDPRLVWYCARCT [V23F],-0.021 ± 0.033
13,AMEMGLACVVCRQMMVASGNQLVECQECHNLYHRDCHKPQVTDKEANDPRLVWGCARCT [Y54G],-0.187 ± 0.049
14,AMEMGLACVVCRQMMVASGNQLVECQECHNLYHRDCHKPQVTDKEANDPRLVWTCARCT [Y54T],0.067 ± 0.062
15,AMEMGLACVVCRQMMVASGNQLVECQECHNLYHRDCHKPQVTDKEANDPRLVWYCAQCT [R57Q],-0.034 ± 0.051
16,AMEMGLACVVCRQMMVAEGNQLVECQECHNLYHRDCHKPQVTDKEANDPRLVWYCARCT [S18E],-0.001 ± 0.055
17,AMEMGLACVVCRQMMVASGNQLVECQECHNLYHRDCHKPQVTDKEANLPRLVWYCARCT [D48L],-0.138 ± 0.047
18,AMEMGLACVVCRQMMVASGNQLVECQECHNLYHRDCHKPQVTDKEANDPRLVWYCHRCT [A56H],-0.031 ± 0.11
19,AMEMGLACVVCRQMMVASGNQLVECQECHNLVHRDCHKPQVTDKEANDPRLVWYCARCT [Y32V],-0.159 ± 0.032
20,AMEMGLACVVCRQMMVASGNQLVECQECHNLYHRDCHKPQVTDKEANDPRLDWYCARCT [V52D],0.025 ± 0.061
21,AMEMGLACVVCRQMMVASGNQLVECQECHNLYHRDCHKPMVTDKEANDPRLVWYCARCT [Q40M],-0.112 ± 0.064
22,AMEMGLACVVCRQMMVAWGNQLVECQECHNLYHRDCHKPQVTDKEANDPRLVWYCARCT [S18W],-0.34 ± 0.058
23,AMEMGVACVVCRQMMVASGNQLVECQECHNLYHRDCHKPQVTDKEANDPRLVWYCARCT [L6V],0.036 ± 0.032

row,Variant,abundance fitness
1,AMEMGLACVVCRQMMVASGNQLVECQECHNLYHRDCHKPQVTDKEANDPRLVWYCARCR [T59R],-0.002 ± 0.055
2,AMEMGLACVVCRQMSVASGNQLVECQECHNLYHRDCHKPQVTDKEANDPRLVWYCARCT [M15S],0.079 ± 0.03
3,AMEMGLACVVCRQMPVASGNQLVECQECHNLYHRDCHKPQVTDKEANDPRLVWYCARCT [M15P],0.084 ± 0.046
4,AMEMGLACVVCRQMMVASGNQLTECQECHNLYHRDCHKPQVTDKEANDPRLVWYCARCT [V23T],-0.158 ± 0.042
5,AMEMGLACVVCRQMMVASGNQLVECQECHNLYHRDCHKPQVTDFEANDPRLVWYCARCT [K44F],-0.139 ± 0.073
6,AMEMGLACVVCRQMMVRSGNQLVECQECHNLYHRDCHKPQVTDKEANDPRLVWYCARCT [A17R],-0.03 ± 0.038
7,AMEMGLACVVCQQMMVASGNQLVECQECHNLYHRDCHKPQVTDKEANDPRLVWYCARCT [R12Q],0.047 ± 0.068
8,AMEMGLACVVCRQMMVASGNQLVECQEDHNLYHRDCHKPQVTDKEANDPRLVWYCARCT [C28D],-0.576 ± 0.043
9,AMEMGLACVVCRQMMVASGNQLVECQECHNLYHRDCHKPQVTDKEANDPRLAWYCARCT [V52A],0.036 ± 0.051
10,AMEMGLACVVCRQMMVASGNQLVECQECHNLYHRACHKPQVTDKEANDPRLVWYCARCT [D35A],0.054 ± 0.036
11,AMEMGLACVVCRQMMCASGNQLVECQECHNLYHRDCHKPQVTDKEANDPRLVWYCARCT [V16C],-0.029 ± 0.035
12,AMEMGLACVVCRQMMVASGNQLVECQECHNLYHRDCHKPQVTDSEANDPRLVWYCARCT [K44S],-0.074 ± 0.046
13,AMEMGLAPVVCRQMMVASGNQLVECQECHNLYHRDCHKPQVTDKEANDPRLVWYCARCT [C8P],-0.633 ± 0.054
14,AMEMGLACVVCRQMMVASGNQLVECQECHNLYHRDCMKPQVTDKEANDPRLVWYCARCT [H37M],0.031 ± 0.065
15,AMEMGLACVVCRQMMVASKNQLVECQECHNLYHRDCHKPQVTDKEANDPRLVWYCARCT [G19K],0.065 ± 0.078
16,AMEMGLACVVCRQMMVASGNQLVECQECHNLYHRDCHKPYVTDKEANDPRLVWYCARCT [Q40Y],-0.264 ± 0.093
17,AMEMGLACVVCRQMMVASGNQLVECWECHNLYHRDCHKPQVTDKEANDPRLVWYCARCT [Q26W],-0.117 ± 0.065
18,AMEMGLACVVCRQMWVASGNQLVECQECHNLYHRDCHKPQVTDKEANDPRLVWYCARCT [M15W],-0.171 ± 0.048
19,AMEMGLACVVCRQMMVASGNQLVECQECHNLYHRDCHKPQVTDKEANDPRLVRYCARCT [W53R],-0.147 ± 0.05
20,AMEMGLACVVCRQMMVASGNQLIECQECHNLYHRDCHKPQVTDKEANDPRLVWYCARCT [V23I],0.001 ± 0.034
21,AMEMGLACVVCRQMMVASGNQLVECQECHNLYHRDCHKPQVTDKEANDPRLLWYCARCT [V52L],-0.018 ± 0.044
22,AMEMGLACVVCRQMMVASGNQLVECQECHNLYHRDCHKPQVTDKEANDPRLVWYCAHCT [R57H],-0.046 ± 0.081

# — the Human Domainome abundance scans (Beltran et al. 2025)
